Measurements taken from US20160009793A1 (BIOARCTIC NEUROSCIENCE, published 2016).

Tests used:
Aβ1-42 protofibrils [1] = target: T1, Aβ1-42 protofibrils (UniProt P05067 672-713); assay: inhibition ELISA: antibody pre-incubated in solution with Aβ protofibrils, then transferred to Aβ coated plates; BAN2401 is the reference
T1 construct: domain: Aβ1-42; Aβ numbering is not APP numbering; also called Aβ protofibrils; Aβ-protofibrils
Experimental: (§1) The binding characteristics towards Aβ protofibrils and Aβ monomers of the antibodies of the invention compared to BAN2401 were analyzed using an inhibition ELISA in which antibodies were pre-incubated in solution with Aβ protofibrils or Aβ monomers and then transferred to Aβ coated ELISA plates, as described in Tucker et. al. J Alzheimers Dis. 2015; 43(2):575-88. doi: 10.3233/JAD-140741. PubMed PMID: 25096615, and references cited therein.

Aβ1-40 monomers = target: T2, Aβ1-40 monomers (UniProt P05067 672-711); assay: inhibition ELISA: antibody pre-incubated in solution with Aβ monomers, then transferred to Aβ coated plates
T2 construct: domain: Aβ1-40; Aβ numbering is not APP numbering; also called Aβ monomers; Aβ monomer
T2 sequence (P05067 672-711 limits assumed): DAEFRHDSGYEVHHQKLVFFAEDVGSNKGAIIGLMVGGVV
Experimental: as §1

Aβ1-42 protofibrils [2] = target: T1, Aβ1-42 protofibrils; assay: inhibition ELISA: antibody pre-incubated in solution with Aβ protofibrils, then transferred to Aβ coated plates
Experimental: as §1

T1 sequence (P05067 672-713 limits assumed): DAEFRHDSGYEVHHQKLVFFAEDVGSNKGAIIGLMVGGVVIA

binding result (Aβ1-42 protofibrils [1])	binding result (Aβ1-40 monomers)	binding result (Aβ1-42 protofibrils [2])	Binder
binds	–	–	BAN2401 (antibody, V domains shown, also called humanized version of mAb158) VH: EVQLVESGGGLVQPGGSLRLSCSASGFTFSSFGMHWVRQAPGKGLEWVAYISSGSSTIYYGDTVKGRFTISRDNAKNSLFLQMSSLRAEDTAVYYCAREGGYYYGRSYYTMDYWGQGTTVTVSS VL: DVVMTQSPLSLPVTPGAPASISCRSSQSIVHSNGNTYLEWYLQKPGQSPKLLIYKVSNRFSGVPDRFSGSGSGTDFTLRISRVEAEDVGIYYCFQGSHVPPTFGPGTKLEIK
–	binds	binds	A17D/R79T (antibody, human IgG1, kappa, V domains shown) VH: EVQLVESGGGLVQPGGSLRLSCSASGFTFSSFGMHWVRQAPGKGLEWVAYISSGSSTIYYGDTVKGRFTISRDNAKNSLFLQMSSLRAEDTAVYYCAREGGYYYGRSYYTMDYWGQGTTVTVSS VL: DVVMTQSPLSLPVTPGDPASISCRSSQSIVHSNGNTYLEWYLQKPGQSPKLLIYKVSNRFSGVPDRFSGSGSGTDFTLTISRVEAEDVGIYYCFQGSHVPPTFGPGTKLEIKR
–	binds	binds	A17D/R79T_DI 4 (antibody, human IgG1, kappa, also called deimmunized variant 4 of A17D/R79T) heavy: not shown light: DVVMTQSPLSLPATPGDPASISCRSSQSIVHSNGNTYLEWYLQKPGQSPKLLIYKVSNRFSGVPDRFSGSGSGTDFTLTISRVDAEDVGIYYCFQGSHVPPTFGPGTKLEIKRTVAAPSVFIFPPSDEQLKSGTASVVCLLNNFYPREAKVQWKVDNALQSGNSQESVTEQDSKDSTYSLSSTLTLSKADYEKHKVYACEVTHQGLSSPVTKSFNRGEC
–	binds	binds	A17D/R79T_DI 5 (antibody, human IgG1, kappa, also called deimmunized variant 5 of A17D/R79T) heavy: not shown light: DVVMTQSPLSLPVTPGDPASVSCRSSQSIVHSNGNTYLEWYLQKPGQSPKLLIYKVSNRFSGVPDRFSGSGSGTDFTLTIQRVEAEDVGIYYCFQGSHVPPTFGPGTKLEIKRTVAAPSVFIFPPSDEQLKSGTASVVCLLNNFYPREAKVQWKVDNALQSGNSQESVTEQDSKDSTYSLSSTLTLSKADYEKHKVYACEVTHQGLSSPVTKSFNRGEC
–	binds	binds	A17D/R79T_DI 6 (antibody, human IgG1, kappa, also called deimmunized variant 6 of A17D/R79T) heavy: not shown light: DVVMTQSPLSLPVTPGDPASVSCRSSQSIVHSNGNTYLEWYLQKPGQSPKLLIYKVSNRFSGVPDRFSGSGSGTDFTLTISRVDAEDVGIYYCFQGSHVPPTFGPGTKLEIKRTVAAPSVFIFPPSDEQLKSGTASVVCLLNNFYPREAKVQWKVDNALQSGNSQESVTEQDSKDSTYSLSSTLTLSKADYEKHKVYACEVTHQGLSSPVTKSFNRGEC
–	binds	binds	A17D/R79T_DI 2 (antibody, human IgG1, kappa, also called deimmunized variant 2 of A17D/R79T) heavy: not shown light: DVVMTQSPLSLPVTPGDPASVSCRSSQSIVHSNGNTYLEWYLQKPGQSPKLLIYKVSNRFSGVPDRFSGSGSGTDFTLTISRVDAEDVGIYYCFQGSHVPPTFGPGTKLEIKRTVAAPSVFIFPPSDEQLKSGTASVVCLLNNFYPREAKVQWKVDNALQSGNSQESVTEQDSKDSTYSLSSTLTLSKADYEKHKVYACEVTHQGLSSPVTKSFNRGEC
–	binds	binds	A17D/R79T_DI 8 (antibody, human IgG1, kappa, also called deimmunized variant 8 of A17D/R79T) heavy: not shown light: DVVMTQSPLSLPATPGDPASISCRSSQSIVHSNGNTYLEWYLQKPGQSPKLLIYKVSNRFSGVPDRFSGSGSGTDFTLTISRVDAEDVGIYYCFQGSHVPPTFGPGTKLEIKRTVAAPSVFIFPPSDEQLKSGTASVVCLLNNFYPREAKVQWKVDNALQSGNSQESVTEQDSKDSTYSLSSTLTLSKADYEKHKVYACEVTHQGLSSPVTKSFNRGEC
–	binds	binds	A17D/R79T/R82S (antibody, human IgG1, kappa, V domains shown) VH: EVQLVESGGGLVQPGGSLRLSCSASGFTFSSFGMHWVRQAPGKGLEWVAYISSGSSTIYYGDTVKGRFTISRDNAKNSLFLQMSSLRAEDTAVYYCAREGGYYYGRSYYTMDYWGQGTTVTVSS VL: DVVMTQSPLSLPVTPGDPASISCRSSQSIVHSNGNTYLEWYLQKPGQSPKLLIYKVSNRFSGVPDRFSGSGSGTDFTLTISSVEAEDVGIYYCFQGSHVPPTFGPGTKLEIKR
–	binds	binds	A17D/R82S (antibody, human IgG1, kappa, V domains shown) VH: EVQLVESGGGLVQPGGSLRLSCSASGFTFSSFGMHWVRQAPGKGLEWVAYISSGSSTIYYGDTVKGRFTISRDNAKNSLFLQMSSLRAEDTAVYYCAREGGYYYGRSYYTMDYWGQGTTVTVSS VL: DVVMTQSPLSLPVTPGDPASISCRSSQSIVHSNGNTYLEWYLQKPGQSPKLLIYKVSNRFSGVPDRFSGSGSGTDFTLRISSVEAEDVGIYYCFQGSHVPPTFGPGTKLEIKR
–	binds	binds	A17D/R79T_DI 1 (antibody, human IgG1, kappa, also called deimmunized variant 1 of A17D/R79T) heavy: not shown light: DVVMTQSPLSLPVTPGDPASVSCRSSQSIVHSNGNTYLEWYLQKPGQSPKLLIYKVSNRFSGVPDRFSGSGSGTDFTLTIQRVEAEDVGIYYCFQGSHVPPTFGPGTKLEIKRTVAAPSVFIFPPSDEQLKSGTASVVCLLNNFYPREAKVQWKVDNALQSGNSQESVTEQDSKDSTYSLSSTLTLSKADYEKHKVYACEVTHQGLSSPVTKSFNRGEC
–	binds	binds	A17D (antibody, human IgG1, kappa, V domains shown) VH: EVQLVESGGGLVQPGGSLRLSCSASGFTFSSFGMHWVRQAPGKGLEWVAYISSGSSTIYYGDTVKGRFTISRDNAKNSLFLQMSSLRAEDTAVYYCAREGGYYYGRSYYTMDYWGQGTTVTVSS VL: DVVMTQSPLSLPVTPGDPASISCRSSQSIVHSNGNTYLEWYLQKPGQSPKLLIYKVSNRFSGVPDRFSGSGSGTDFTLRISRVEAEDVGIYYCFQGSHVPPTFGPGTKLEIKR
–	binds	binds	A17D/R79T_DI 7 (antibody, human IgG1, kappa, also called deimmunized variant 7 of A17D/R79T) heavy: not shown light: DVVMTQSPLSLPATPGDPASISCRSSQSIVHSNGNTYLEWYLQKPGQSPKLLIYKVSNRFSGVPDRFSGSGSGTDFTLTIQRVEAEDVGIYYCFQGSHVPPTFGPGTKLEIKRTVAAPSVFIFPPSDEQLKSGTASVVCLLNNFYPREAKVQWKVDNALQSGNSQESVTEQDSKDSTYSLSSTLTLSKADYEKHKVYACEVTHQGLSSPVTKSFNRGEC
–	binds	binds	A17D/R79T_DI 3 (antibody, human IgG1, kappa, also called deimmunized variant 3 of A17D/R79T) heavy: not shown light: DVVMTQSPLSLPATPGDPASISCRSSQSIVHSNGNTYLEWYLQKPGQSPKLLIYKVSNRFSGVPDRFSGSGSGTDFTLTIQRVEAEDVGIYYCFQGSHVPPTFGPGTKLEIKRTVAAPSVFIFPPSDEQLKSGTASVVCLLNNFYPREAKVQWKVDNALQSGNSQESVTEQDSKDSTYSLSSTLTLSKADYEKHKVYACEVTHQGLSSPVTKSFNRGEC
